{"source": "patent US20170101477A1", "key": {"[1]": {"target": "human LEPR extracellular domain expressed with a C-terminal mouse IgG2a Fc tag (hLEPR.mFc) (human)", "sequence (chain, as listed by the source limits assumed)": "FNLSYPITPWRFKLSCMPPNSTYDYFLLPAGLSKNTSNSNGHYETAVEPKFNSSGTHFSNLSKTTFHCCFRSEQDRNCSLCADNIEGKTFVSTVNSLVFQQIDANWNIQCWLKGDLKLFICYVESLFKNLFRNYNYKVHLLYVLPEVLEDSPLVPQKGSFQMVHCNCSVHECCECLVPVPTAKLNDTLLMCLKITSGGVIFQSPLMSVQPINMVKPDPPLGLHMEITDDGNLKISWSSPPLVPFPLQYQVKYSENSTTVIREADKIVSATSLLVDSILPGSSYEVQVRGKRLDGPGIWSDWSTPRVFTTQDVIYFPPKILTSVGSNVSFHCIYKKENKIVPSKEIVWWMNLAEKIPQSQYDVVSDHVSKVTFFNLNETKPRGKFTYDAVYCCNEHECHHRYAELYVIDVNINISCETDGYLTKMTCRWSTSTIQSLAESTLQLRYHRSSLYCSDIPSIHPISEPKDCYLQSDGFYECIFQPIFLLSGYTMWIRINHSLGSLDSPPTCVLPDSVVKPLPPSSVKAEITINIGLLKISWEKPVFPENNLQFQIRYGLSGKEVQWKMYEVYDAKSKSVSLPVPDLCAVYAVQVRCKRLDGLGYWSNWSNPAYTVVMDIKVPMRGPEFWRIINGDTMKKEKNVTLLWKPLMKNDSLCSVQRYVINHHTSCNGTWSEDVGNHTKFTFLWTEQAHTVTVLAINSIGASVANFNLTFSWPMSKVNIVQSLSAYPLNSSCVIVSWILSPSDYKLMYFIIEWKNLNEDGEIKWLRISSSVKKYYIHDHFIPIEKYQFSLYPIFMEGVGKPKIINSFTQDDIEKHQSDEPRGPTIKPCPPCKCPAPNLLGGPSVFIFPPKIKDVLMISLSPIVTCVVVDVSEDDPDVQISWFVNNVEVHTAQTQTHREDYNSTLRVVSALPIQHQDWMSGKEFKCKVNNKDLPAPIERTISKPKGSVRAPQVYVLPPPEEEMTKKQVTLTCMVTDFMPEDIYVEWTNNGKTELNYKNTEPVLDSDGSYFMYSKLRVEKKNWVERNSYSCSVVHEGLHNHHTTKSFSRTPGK", "assay": "SPR, mAb captured, 37C"}, "[2]": {"target": "human LEPR extracellular domain expressed with a C-terminal myc-myc-hexahistidine tag (hLEPR.mmh) (human) (UniProt P48357)", "sequence (P48357 other isoform, or with tags, fused parts or gaps)": "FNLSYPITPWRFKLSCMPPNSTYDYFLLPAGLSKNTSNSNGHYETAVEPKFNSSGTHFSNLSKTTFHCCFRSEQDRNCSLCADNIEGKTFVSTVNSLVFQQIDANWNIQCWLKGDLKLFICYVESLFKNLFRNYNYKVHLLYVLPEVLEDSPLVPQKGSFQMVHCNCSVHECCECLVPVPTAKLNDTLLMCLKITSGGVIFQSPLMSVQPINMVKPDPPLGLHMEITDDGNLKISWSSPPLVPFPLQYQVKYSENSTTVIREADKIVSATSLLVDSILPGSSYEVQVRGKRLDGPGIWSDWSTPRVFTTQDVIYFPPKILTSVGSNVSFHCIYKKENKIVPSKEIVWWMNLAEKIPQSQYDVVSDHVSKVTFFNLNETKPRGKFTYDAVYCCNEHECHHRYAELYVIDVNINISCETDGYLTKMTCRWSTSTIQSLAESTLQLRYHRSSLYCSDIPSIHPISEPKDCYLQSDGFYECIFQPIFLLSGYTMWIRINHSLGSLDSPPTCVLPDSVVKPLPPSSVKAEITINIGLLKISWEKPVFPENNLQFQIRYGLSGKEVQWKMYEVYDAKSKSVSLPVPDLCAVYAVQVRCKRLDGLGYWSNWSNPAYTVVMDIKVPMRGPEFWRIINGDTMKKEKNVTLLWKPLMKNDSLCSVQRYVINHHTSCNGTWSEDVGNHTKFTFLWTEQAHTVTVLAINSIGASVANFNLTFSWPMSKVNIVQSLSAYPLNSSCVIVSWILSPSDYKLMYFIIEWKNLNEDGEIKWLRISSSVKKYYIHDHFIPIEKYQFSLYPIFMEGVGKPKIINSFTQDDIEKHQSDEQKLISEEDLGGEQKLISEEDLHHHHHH", "assay": "SPR, mAb captured, 37C"}, "[3]": {"target": "macaca fascicularis LEPR extracellular domain expressed with a C-terminal myc-myc-hexahistidine tag (mfLEPR.mmh) (Macaca fascicularis)", "sequence (Q9MYL0 other isoform, or with tags, fused parts or gaps)": "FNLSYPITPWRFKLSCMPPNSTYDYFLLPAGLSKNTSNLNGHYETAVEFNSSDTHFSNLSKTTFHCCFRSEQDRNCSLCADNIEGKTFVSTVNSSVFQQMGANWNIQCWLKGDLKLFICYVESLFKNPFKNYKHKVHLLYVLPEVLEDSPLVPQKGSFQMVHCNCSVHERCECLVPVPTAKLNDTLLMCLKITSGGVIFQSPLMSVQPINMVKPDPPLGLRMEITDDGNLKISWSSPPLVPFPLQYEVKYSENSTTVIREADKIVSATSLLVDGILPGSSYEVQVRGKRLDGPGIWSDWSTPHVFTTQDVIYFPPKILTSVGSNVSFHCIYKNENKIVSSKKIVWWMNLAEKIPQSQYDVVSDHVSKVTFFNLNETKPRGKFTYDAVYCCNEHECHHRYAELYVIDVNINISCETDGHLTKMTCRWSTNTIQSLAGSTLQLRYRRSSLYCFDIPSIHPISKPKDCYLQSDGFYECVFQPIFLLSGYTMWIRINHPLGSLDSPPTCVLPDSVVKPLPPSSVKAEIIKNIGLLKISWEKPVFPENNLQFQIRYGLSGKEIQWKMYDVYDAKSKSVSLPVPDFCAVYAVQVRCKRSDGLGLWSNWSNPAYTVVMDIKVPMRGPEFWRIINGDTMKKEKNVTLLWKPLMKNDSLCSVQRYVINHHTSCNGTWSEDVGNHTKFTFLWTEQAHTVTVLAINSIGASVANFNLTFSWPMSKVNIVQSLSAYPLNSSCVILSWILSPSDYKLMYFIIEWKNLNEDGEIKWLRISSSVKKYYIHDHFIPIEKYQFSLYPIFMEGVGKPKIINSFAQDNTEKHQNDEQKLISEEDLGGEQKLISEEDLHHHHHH", "assay": "SPR, mAb captured, 37C"}, "[4]": {"target": "full length human LEPR (amino acids 1-1165 of P48357, Isoform B), on cells (human) (UniProt P48357)", "assay": "FACS, 70 nM Ab, HEK293/Stat3-luc/hLEPR-FL"}, "[5]": {"target": "Mycx2-hLepR(ecto)-GPI anchored, on HEK293/hLEPR-GPI cells (human) (UniProt P48357)", "sequence (P48357 22-839)": "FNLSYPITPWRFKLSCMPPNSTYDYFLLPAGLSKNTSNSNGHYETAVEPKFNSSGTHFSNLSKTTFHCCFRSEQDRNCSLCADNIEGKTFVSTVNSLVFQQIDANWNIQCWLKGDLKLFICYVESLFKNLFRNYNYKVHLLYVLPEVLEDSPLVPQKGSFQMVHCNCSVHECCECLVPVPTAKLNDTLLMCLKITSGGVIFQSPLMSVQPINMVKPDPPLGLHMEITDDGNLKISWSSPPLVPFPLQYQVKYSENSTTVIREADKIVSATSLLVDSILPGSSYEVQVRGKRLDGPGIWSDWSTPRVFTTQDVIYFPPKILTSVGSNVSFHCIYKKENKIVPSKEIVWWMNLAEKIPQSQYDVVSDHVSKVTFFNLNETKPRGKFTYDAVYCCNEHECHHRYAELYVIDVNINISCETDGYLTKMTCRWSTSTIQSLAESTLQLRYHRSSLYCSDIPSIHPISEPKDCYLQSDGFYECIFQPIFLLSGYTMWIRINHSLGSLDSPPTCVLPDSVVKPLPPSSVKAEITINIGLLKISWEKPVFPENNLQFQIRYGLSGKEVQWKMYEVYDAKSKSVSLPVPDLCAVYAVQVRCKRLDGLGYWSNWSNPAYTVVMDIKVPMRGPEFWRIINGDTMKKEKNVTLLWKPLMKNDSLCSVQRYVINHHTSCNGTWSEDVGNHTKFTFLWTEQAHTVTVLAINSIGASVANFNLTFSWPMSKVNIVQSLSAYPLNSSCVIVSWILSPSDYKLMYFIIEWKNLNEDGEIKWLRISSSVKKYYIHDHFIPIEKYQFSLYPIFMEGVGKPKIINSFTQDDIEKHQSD", "assay": "FACS, 70 nM Ab, HEK293/hLEPR-GPI"}, "[6]": {"target": "Mycx2-hLepR(ecto)-GPI anchored, on HEK293/hLEPR-GPI cells (human) (UniProt P48357)", "assay": "FACS, 10 nM Ab, HEK293/hLEPR-GPI, no added Leptin"}, "[7]": {"target": "human LEPR extracellular domain expressed with a C-terminal mouse IgG2a Fc tag (hLEPR.mFc) (human)", "assay": "SPR, mAb captured, 25C"}, "[8]": {"target": "human LEPR extracellular domain expressed with a C-terminal myc-myc-hexahistidine tag (hLEPR.mmh) (human) (UniProt P48357)", "assay": "SPR, mAb captured, 25C"}, "[9]": {"target": "macaca fascicularis LEPR extracellular domain expressed with a C-terminal myc-myc-hexahistidine tag (mfLEPR.mmh) (Macaca fascicularis)", "assay": "SPR, mAb captured, 25C"}, "[10]": {"target": "extracellular domain portion of LEPR protein expressed with a C-terminal human Fc tag (hLEPR.hFc) (human)", "sequence (chain, as listed by the source limits assumed)": "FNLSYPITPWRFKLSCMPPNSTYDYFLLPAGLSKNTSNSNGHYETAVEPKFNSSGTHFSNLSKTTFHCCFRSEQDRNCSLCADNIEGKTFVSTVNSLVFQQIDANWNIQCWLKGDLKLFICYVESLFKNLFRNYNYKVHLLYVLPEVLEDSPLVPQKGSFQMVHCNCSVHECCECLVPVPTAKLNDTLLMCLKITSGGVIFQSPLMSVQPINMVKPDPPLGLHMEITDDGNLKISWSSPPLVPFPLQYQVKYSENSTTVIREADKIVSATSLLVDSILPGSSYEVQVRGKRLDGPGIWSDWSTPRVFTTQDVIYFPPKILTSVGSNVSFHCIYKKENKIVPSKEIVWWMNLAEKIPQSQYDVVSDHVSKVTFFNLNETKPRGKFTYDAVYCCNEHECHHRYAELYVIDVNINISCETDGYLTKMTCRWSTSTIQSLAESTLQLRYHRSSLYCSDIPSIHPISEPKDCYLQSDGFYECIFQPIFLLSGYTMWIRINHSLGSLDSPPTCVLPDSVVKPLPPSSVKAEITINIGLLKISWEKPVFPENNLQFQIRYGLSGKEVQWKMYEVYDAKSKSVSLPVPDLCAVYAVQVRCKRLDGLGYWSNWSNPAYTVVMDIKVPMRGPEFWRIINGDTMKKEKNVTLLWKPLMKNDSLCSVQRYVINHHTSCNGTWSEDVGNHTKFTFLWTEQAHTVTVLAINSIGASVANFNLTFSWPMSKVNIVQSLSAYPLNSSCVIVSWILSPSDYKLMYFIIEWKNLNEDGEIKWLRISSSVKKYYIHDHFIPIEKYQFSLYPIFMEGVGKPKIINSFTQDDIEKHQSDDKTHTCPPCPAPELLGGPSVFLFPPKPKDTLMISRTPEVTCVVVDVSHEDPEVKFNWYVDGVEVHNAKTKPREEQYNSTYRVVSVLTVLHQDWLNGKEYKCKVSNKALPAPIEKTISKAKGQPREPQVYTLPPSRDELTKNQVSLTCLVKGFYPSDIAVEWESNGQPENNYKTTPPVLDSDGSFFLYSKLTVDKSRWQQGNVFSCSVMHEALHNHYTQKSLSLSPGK", "assay": "ELISA, 500 nM Ab, 10 nM hLEPR.hFc to coated hLeptin"}, "[11]": {"target": "Mycx2-hLepR(ecto)-GPI anchored, on HEK293/hLEPR-GPI cells (human) (UniProt P48357)", "assay": "FACS, 10 nM Ab, HEK293/hLEPR-GPI, 1 uM Leptin"}, "[12]": {"target": "human LEPR Ig-CRH2-FNIII-MMH (human) (UniProt P48357)", "assay": "Luminex, myc-captured LEPR protein"}, "[13]": {"target": "human LEPR FNIII-MMH (human) (UniProt P48357)", "sequence (P48357 636-839 limits assumed)": "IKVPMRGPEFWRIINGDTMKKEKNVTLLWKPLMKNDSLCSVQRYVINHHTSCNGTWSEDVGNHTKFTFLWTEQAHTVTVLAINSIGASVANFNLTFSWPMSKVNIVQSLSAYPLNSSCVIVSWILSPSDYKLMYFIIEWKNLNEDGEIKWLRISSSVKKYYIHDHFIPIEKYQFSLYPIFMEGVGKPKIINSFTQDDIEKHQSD", "assay": "Luminex, myc-captured LEPR protein"}, "[14]": {"target": "human LEPR Ig (D3)-MMH (human) (UniProt P48357)", "assay": "Luminex, myc-captured LEPR protein"}, "[15]": {"target": "human LEPR CRH1 (D1,D2,D3)-MMH (human) (UniProt P48357)", "assay": "Luminex, myc-captured LEPR protein"}, "[16]": {"target": "human LEPR CRH1 (D1)-MMH (human) (UniProt P48357)", "assay": "Luminex, myc-captured LEPR protein"}, "[17]": {"target": "human LEPR CRH1 (D1,D2)-MMH (human) (UniProt P48357)", "assay": "Luminex, myc-captured LEPR protein"}, "[18]": {"target": "human LEPR extracellular domain expressed with a C-terminal myc-myc-hexahistidine tag (hLEPR.mmh) (human) (UniProt P48357)", "assay": "Luminex, myc-captured LEPR protein"}, "[19]": {"target": "human LEPR CRH2-MMH (human) (UniProt P48357)", "sequence (P48357 428-634 limits assumed)": "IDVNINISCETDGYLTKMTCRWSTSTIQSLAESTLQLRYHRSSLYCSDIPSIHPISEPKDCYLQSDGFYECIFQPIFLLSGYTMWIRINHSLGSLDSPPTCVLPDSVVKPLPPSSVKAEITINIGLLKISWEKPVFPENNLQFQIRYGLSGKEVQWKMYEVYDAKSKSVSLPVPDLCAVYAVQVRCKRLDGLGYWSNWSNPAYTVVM", "assay": "Luminex, myc-captured LEPR protein"}, "[20]": {"target": "human LEPR CRH1-Ig (D2,D3)-MMH (human) (UniProt P48357)", "assay": "Luminex, myc-captured LEPR protein"}}, "data": [{"substance": "Isotype Control mAb (antibody)", "values": [{"measurement": "100 nM hLEPR-mFc Bound (RU)", "setting": "[1]", "result": 1, "unit": "RU"}, {"measurement": "100 nM hLEPR-MMH Bound (RU)", "setting": "[2]", "result": 6, "unit": "RU"}, {"measurement": "100 nM mfLEPR.MMH Bound (RU)", "setting": "[3]", "result": 1, "unit": "RU"}, {"measurement": "Binding Ratio", "setting": "[4]", "result": 2, "unit": "fold"}, {"measurement": "Binding Ratio", "setting": "[5]", "result": 2, "unit": "fold"}, {"measurement": "Binding Ratio", "setting": "[6]", "result": 6, "unit": "fold"}, {"measurement": "100 nM hLEPR-mFc Bound (RU)", "setting": "[7]", "result": -2, "unit": "RU"}, {"measurement": "100 nM hLEPR-MMH Bound (RU)", "setting": "[8]", "result": 4, "unit": "RU"}, {"measurement": "100 nM mfLEPR.MMH Bound (RU)", "setting": "[9]", "result": 0, "unit": "RU"}, {"measurement": "% blockade", "setting": "[10]", "result": -3, "unit": "%"}, {"measurement": "Binding Ratio", "setting": "[11]", "result": 4, "unit": "fold"}]}, {"substance": "Comparator mAb (Fab9F8 described in Fazeli et al. 2006 and Carpenter et al. 2012) (antibody)", "values": [{"measurement": "Luminex MFI", "setting": "[12]", "result": 7110, "unit": "MFI"}, {"measurement": "Luminex MFI", "setting": "[13]", "result": 73, "unit": "MFI"}, {"measurement": "Luminex MFI", "setting": "[14]", "result": 10, "unit": "MFI"}, {"measurement": "Luminex MFI", "setting": "[15]", "result": -57, "unit": "MFI"}, {"measurement": "Luminex MFI", "setting": "[16]", "result": -14, "unit": "MFI"}, {"measurement": "Luminex MFI", "setting": "[17]", "result": 19, "unit": "MFI"}, {"measurement": "Luminex MFI", "setting": "[18]", "result": 3910, "unit": "MFI"}, {"measurement": "Luminex MFI", "setting": "[19]", "result": 9400, "unit": "MFI"}, {"measurement": "Luminex MFI", "setting": "[20]", "result": 27, "unit": "MFI"}, {"measurement": "Binding Ratio", "setting": "[6]", "result": 2350, "unit": "fold"}, {"measurement": "% blockade", "setting": "[10]", "result": 99, "unit": "%"}, {"measurement": "Binding Ratio", "setting": "[11]", "result": 112, "unit": "fold"}]}, {"substance": "Mouse IgG2a Isotype control (antibody)", "values": [{"measurement": "% blockade", "setting": "[10]", "result": 32, "unit": "%"}]}]}
